In the data set the target is STAT3 127-688 (UniProt P40763 127-688). Briefly: competition (fluorescence polarization); competitor vs 20 nM Bodipy-DNA N1, 480 nM protein; 24 hr, 4 C; FP: 20 nM Bodipy-DNA, 480 nM STAT3 127-688, 25 mM Tris pH 8.5 (protein purification and DNA annealing buffer; full assay buffer not in material), NaCl < 200 uM. As to conditions: protein: recombinant, blunt. A general note: Polarisation of emitted light reports the rotation of a fluorescent probe.

IC50 data for two molecules are collected here from paper PMC6135694, “A high-throughput fluorescence polarization assay for discovering inhibitors targeting the DNA-binding domain of signal transducer and activator of transcription 3 (STAT3)”.

Chain of STAT3 127-688 (P40763 127-688): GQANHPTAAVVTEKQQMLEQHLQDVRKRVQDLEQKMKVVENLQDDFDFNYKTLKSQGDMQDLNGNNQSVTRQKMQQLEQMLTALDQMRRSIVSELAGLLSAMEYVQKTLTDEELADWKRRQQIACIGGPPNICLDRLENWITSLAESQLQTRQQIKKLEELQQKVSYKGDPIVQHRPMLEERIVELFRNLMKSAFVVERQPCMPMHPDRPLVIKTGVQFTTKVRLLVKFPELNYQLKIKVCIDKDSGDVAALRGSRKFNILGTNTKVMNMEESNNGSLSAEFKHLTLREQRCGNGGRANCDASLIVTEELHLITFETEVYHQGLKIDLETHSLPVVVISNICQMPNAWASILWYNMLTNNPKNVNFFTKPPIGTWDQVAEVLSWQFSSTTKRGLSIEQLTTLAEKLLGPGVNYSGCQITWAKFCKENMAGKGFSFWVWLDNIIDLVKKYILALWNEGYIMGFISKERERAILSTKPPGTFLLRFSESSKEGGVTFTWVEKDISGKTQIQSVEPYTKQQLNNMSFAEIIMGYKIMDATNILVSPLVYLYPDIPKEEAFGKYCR

B1: unlabelled consensus DNA 12-mer (dsDNA)
DNA 1: ATTTCCCGTAAA
DNA 2: TTTACGGGAAAT
Usually IC50 stands for the concentration that inhibits the measured activity by half. For the molecule B1, the IC50 is 300 ± 200 nM.

B2: unlabelled non-consensus DNA 12-mer (dsDNA)
DNA 1: GTACCATGGTAC
DNA 2: GTACCATGGTAC
As for B2, the IC50 (self-complementary, 2 copies of strand) is 2300 ± 660 nM.
